Measured values from the supplement of paper PMC11908140.

B1: library; numbered along this chain (parent)
chain: MRKPRAAVGSGHRKQAASQEGRQKHAKNNSQAKPSACDGLARQPEEVVLQASVSSYHLFRDVAEVTAFRGSLLSWYDQEKRDLPWRRRAEDEMDLDRRAYAVWVSEVMLQQTQVATVINYYTGWMQKWPTLQDLASASLEEVNQLWAGLGYYSRGRRLQEGARKVVEELGGHMPRTAETLQQLLPGVGRYTAGAIASIAFGQATGVVDGNVARVLCRVRAIGADPSSTLVSQQLWGLAQQLVDPARPGDFNQAAMELGATVCTPQRPLCSQCPVESLCRARQRVEQEQLLASGSLSGSPDVEECAPNTGQCHLCLPPSEPWDQTLGVVNFPRKASRKPPREESSATCVLEQPGALGAQILLVQRPNSGLLAGLWEFPSVTWEPSEQLQRKALLQELQRWAGPLPATHLRHLGEVVHTFSHIKLTYQVYGLALEGQTPVTTVPPGARWLTQEEFHTAAVSTAMKKVFRVYQGQQPGTCMGSKRSQVSSPCSRKKPRMGQQVLDNFFRSHISTDAHSLNSAAQ

Variants of: B1
Test: 8OG:A repair function score (normalized; synonymous = 0, nonsense = -1) (normalized log-likelihood score); higher = more repair activity (WT-like)
Conditions: with 8OG:A DNA repair reporter (GFP) in HEK-293 MUTYH KO cells
Procedure, shortened: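 Lentiviral MUTYH cDNA NNN codon-scan libraries were expressed in MUTYH knockout HEK-293 cells with 10 pg/ml doxycycline, and the cells received an 8OG:A GFP repair reporter together with mCherry. At 72 h, viable mCherry+ cells went into GFP+ (repair) or GFP− bins, three replicates per tile, before tile amplicons were sequenced. A repair function score was then built from per-tile Rosace fitness scores, anchored on the synonymous and nonsense distributions. Synonymous medians sat at 0 and nonsense at -1, and variants under 300 counts per million at the start were left out.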
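Further: cells sorted at 72 h after reporter transfection.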

In order of falling “8OG:A repair function score” value:
1. I509N  0.0286
2. F504M  0.0285
3. F504D  0.0276
4. L501P  0.0273
5. I509P  0.0272
6. F505N  0.0264
7. R506T  0.0259
8. F504Y  0.0257
9. F504E  0.0256
10. F505Q  0.0246
11. F505C  0.0238
12. F504S  0.0238
13. F504N  0.023
14. F505D  0.0229
15. L501S  0.0215
16. N503E  0.0211
17. F504H  0.0204
18. R506P  0.0202
19. V500T  0.02
20. L501Q  0.02
21. F505S  0.0199
22. L501F  0.0198
23. R506I  0.0189
24. D502R  0.0187
25. H508E  0.0183
26. H508W  0.018
27. F505T  0.0174
28. F505P  0.0167
29. R506C  0.0164
30. S507T  0.0162
31. F505R  0.016
32. F505L  0.0157
33. I509A  0.0157
34. R506K  0.0152
35. L501E  0.0149
36. I509E  0.0145
37. R506Y  0.0145
38. L501H  0.0143
39. R506D  0.0134
40. F505I  0.0133
41. N503A  0.0125
42. F504T  0.0122
43. S507P  0.0118
44. L501M  0.0114
45. N503Q  0.0112
46. I509H  0.0112
47. D502N  0.011
48. R506E  0.0109
49. H508T  0.0103
50. L501D  0.00991
51. F504A  0.00928
52. R506N  0.00916
53. F505G  0.00871
54. R506L  0.00814
55. V500R  0.00797
56. F504I  0.00771
57. V500S  0.00727
58. V500Q  0.00719
59. L501G  0.00711
60. F504L  0.0067
61. N503T  0.00666
62. N503G  0.00621
63. D502T  0.00564
64. N503C  0.00549
65. F505V  0.00446
66. H508P  0.00413
67. F505Y  0.00392
68. N503F  0.0039
69. H508Y  0.0034
70. N503L  0.00339
71. I509L  0.00266
72. F505W  0.00244
73. R506S  0.00235
74. L501R  0.00197
75. L501V  0.00157
76. F505A  0.00138
77. L501A  0.00122
78. H508Q  0.000578
79. S507E  0.000264
80. N503M  -9.05e-05
81. H508D  -0.000798
82. S507V  -0.000918
83. N503P  -0.000934
84. F504R  -0.00117
85. S507G  -0.00119
86. H508F  -0.00232
87. H508G  -0.00256
88. D502C  -0.00279
89. L501C  -0.00326
90. F504C  -0.00333
91. S507R  -0.00355
92. D502K  -0.00432
93. I509K  -0.00442
94. F504V  -0.00446
95. D502G  -0.00456
96. F504K  -0.0046
97. H508A  -0.00475
98. I509D  -0.00523
99. R506G  -0.0057
100. H508S  -0.00585
101. I509G  -0.00592
102. L501W  -0.00606
103. S507K  -0.0064
104. H508N  -0.00695
105. F504Q  -0.00826
106. V500Y  -0.00833
107. I509C  -0.00892
108. H508V  -0.0097
109. D502P  -0.0101
110. L501N  -0.0105
111. N503R  -0.0109
112. N503W  -0.011
113. N503V  -0.0118
114. L501T  -0.0124
115. H508R  -0.0128
116. L501Y  -0.0132
117. N503K  -0.0135
118. H508I  -0.0148
119. V500W  -0.015
120. N503Y  -0.0151
121. D502S  -0.0153
122. S507C  -0.0153
123. D502A  -0.0186
124. N503S  -0.019
125. R506V  -0.0196
126. L501I  -0.0198
127. S507M  -0.0199
128. D502E  -0.0204
129. H508C  -0.0231
130. H508M  -0.0245
131. F504P  -0.0247
132. F504W  -0.0289
133. S507L  -0.0301
134. F505H  -0.0303
135. N503I  -0.0307
136. D502H  -0.0311
137. D502L  -0.0337
138. I509M  -0.0347
139. F504G  -0.0353
140. D502I  -0.0355
141. S507A  -0.0386
142. D502V  -0.0389
143. S507N  -0.0395
144. D502W  -0.0396
145. S507D  -0.0424
146. D502F  -0.0425
147. S507W  -0.0429
148. H508L  -0.0429
149. S507I  -0.0448
150. D502M  -0.0464
151. F505M  -0.0487
152. F505K  -0.0487
153. D502Y  -0.0488
154. R506Q  -0.052
155. I509F  -0.0535
156. R506F  -0.0582
157. N503D  -0.0599
158. H508K  -0.0603
159. R506A  -0.0637
160. S507Q  -0.0688
161. D502Q  -0.0749
162. N503H  -0.0815
163. R506W  -0.0815
164. S507H  -0.084
165. L501K  -0.0877
166. S507F  -0.0917
167. S507Y  -0.141
